Source: IntAct's records for PubMed 22797597

B1: TRAF2 and NCK-interacting protein kinase (Homo sapiens), Q9UKE5 (parent)
chain: MASDSPARSLDEIDLSALRDPAGIFELVELVGNGTYGQVYKGRHVKTGQLAAIKVMDVTGDEEEEIKQEINMLKKYSHHRNIATYYGAFIKKNPPGMDDQLWLVMEFCGAGSVTDLIKNTKGNTLKEEWIAYICREILRGLSHLHQHKVIHRDIKGQNVLLTENAEVKLVDFGVSAQLDRTVGRRNTFIGTPYWMAPEVIACDENPDATYDFKSDLWSLGITAIEMAEGAPPLCDMHPMRALFLIPRNPAPRLKSKKWSKKFQSFIESCLVKNHSQRPATEQLMKHPFIRDQPNERQVRIQLKDHIDRTKKKRGEKDETEYEYSGSEEEEEENDSGEPSSILNLPGESTLRRDFLRLQLANKERSEALRRQQLEQQQRENEEHKRQLLAERQKRIEEQKEQRRRLEEQQRREKELRKQQEREQRRHYEEQMRREEERRRAEHEQEYIRRQLEEEQRQLEILQQQLLHEQALLLEYKRKQLEEQRQAERLQRQLKQERDYLVSLQHQRQEQRPVEKKPLYHYKEGMSPSEKPAWAKEVEERSRLNRQSSPAMPHKVANRISDPNLPPRSESFSISGVQPARTPPMLRPVDPQIPHLVAVKSQGPALTASQSVHEQPTKGLSGFQEALNVTSHRVEMPRQNSDPTSENPPLPTRIEKFDRSSWLRQEEDIPPKVPQRTTSISPALARKNSPGNGSALGPRLGSQPIRASNPDLRRTEPILESPLQRTSSGSSSSSSTPSSQPSSQGGSQPGSQAGSSERTRVRANSKSEGSPVLPHEPAKVKPEESRDITRPSRPASYKKAIDEDLTALAKELRELRIEETNRPMKKVTDYSSSSEESESSEEEEEDGESETHDGTVAVSDIPRLIPTGAPGSNEQYNVGMVGTHGLETSHADSFSGSISREGTLMIRETSGEKKRSGHSDSNGFAGHINLPDLVQQSHSPAGTPTEGLGRVSTHSQEMDSGTEYGMGSSTKASFTPFVDPRVYQTSPTDEDEEDEESSAAALFTSELLRQEQAKLNEARKISVVNVNPTNIRPHSDTPEIRKYKKRFNSEILCAALWGVNLLVGTENGLMLLDRSGQGKVYNLINRRRFQQMDVLEGLNVLVTISGKKNKLRVYYLSWLRNRILHNDPEVEKKQGWITVGDLEGCIHYKVVKYERIKFLVIALKNAVEIYAWAPKPYHKFMAFKSFADLQHKPLLVDLTVEEGQRLKVIFGSHTGFHVIDVDSGNSYDIYIPSHIQGNITPHAIVILPKTDGMEMLVCYEDEGVYVNTYGRITKDVVLQWGEMPTSVAYIHSNQIMGWGEKAIEIRSVETGHLDGVFMHKRAQRLKFLCERNDKVFFASVRSGGSSQVFFMTLNRNSMMNW

Variants of: B1
Settings: with STK26, Q9P289-1
STK26, Q9P289-1, sequence (Q9P289 whole entry, looked up): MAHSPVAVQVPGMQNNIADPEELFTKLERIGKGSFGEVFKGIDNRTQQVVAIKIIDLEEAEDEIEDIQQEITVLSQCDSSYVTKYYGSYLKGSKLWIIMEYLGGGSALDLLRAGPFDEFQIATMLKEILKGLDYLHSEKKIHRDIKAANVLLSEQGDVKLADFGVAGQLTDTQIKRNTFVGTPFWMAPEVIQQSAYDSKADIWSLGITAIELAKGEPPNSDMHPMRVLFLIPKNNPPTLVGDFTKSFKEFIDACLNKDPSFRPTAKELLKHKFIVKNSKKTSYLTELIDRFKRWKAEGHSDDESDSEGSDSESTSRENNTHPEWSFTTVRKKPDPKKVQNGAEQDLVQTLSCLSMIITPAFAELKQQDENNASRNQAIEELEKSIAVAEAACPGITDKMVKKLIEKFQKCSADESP
For K54A, the “effect of a mutation on the interaction” value was “increasing interaction strength”.
With R152A;D153A the “effect of a mutation on the interaction” value was “increasing interaction strength”.
